{"source": "patent US20080182978A1", "about": "“ANTI-NGF ANTIBODIES AND METHODS USING SAME” (RINAT NEUROSCIENCE CORP, priority 2002, published 2008)", "key": {"NT3": {"biological_target": "T1, NT3 (Homo sapiens, UniProt P20783)", "T1 sequence (P20783 139-257)": "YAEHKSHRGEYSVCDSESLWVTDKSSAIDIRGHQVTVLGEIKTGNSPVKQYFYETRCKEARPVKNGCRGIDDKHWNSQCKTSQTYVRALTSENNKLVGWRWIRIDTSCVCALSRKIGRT", "experiment": "Mouse E17/18 trigeminal neuron survival assay, NT3", "assay_type": "cell-based", "conditions": "saturating NT3; antibody up to 200 nM; 48 hours", "protocol": "The ability of antibody E3 to specifically block NGF activity was evaluated by measurement of the capacity of the antibody to inhibit survival of mouse E17/18 trigeminal neurons in vitro in the presence of saturating concentrations of NGF, the NGF-related neurotrophin NT3, or the NGF-unrelated neurotrophic factor, macrophage stimulating protein (MSP). The survival of mouse E17/18 trigeminal neurons is a sensitive assay to evaluate the NGF-blocking activity of anti-NGF antagonist antibodies because NGF is required to support survival of these neurons at higher concentrations than the level of NGF required to support survival of E13.5 TG neurons).\nThe survival assay was conducted as follows: time mated pregnant Swiss Webster female mice were euthanised by CO2 inhalation. The uterine horns were removed and the embryos (at embryonic day 17 or 18) were extracted and decapitated. The trigeminal and nodose ganglia were dissected and cleaned. The ganglia were then trypsinised, mechanically dissociated and plated at a density of 100-300 cells per well in defined, serum-free medium in 4-well plates (Greiner) coated with poly-L-ornithine and laminin.\nE17/18 trigeminal neurons were grown either without added neurotrophic factors (negative control) or in the presence of saturating concentrations of human NGF (400 pM and 15 pM) (positive control); NT3 (400 pM); or MSP (600 pM). […]"}, "[1]": {"system": "post-surgical resting pain (paw incision)", "experiment": "Post-surgical pain model, cumulative resting pain score", "assay_type": "in vivo, rat"}}, "note": "Entries after “also recorded” stand apart in the source; their conditions may differ."}
{"molecule": "E3: humanized, affinity matured anti-NGF antagonist antibody; variable regions SEQ ID NO:1 and 2; human IgG2a (A330P331 to S330S331), kappa (antibody, V domains shown, human IgG2a constant (A330S/P331S) and kappa constant missing) VH: QVQLQESGPGLVKPSETLSLTCTVSGFSLIGYDLNWIRQPPGKGLEWIGIIWGDGTTDYNSAVKSRVTISKDTSKNQFSLKLSSVTAADTAVYYCARGGYWYATSYYFDYWGQGTLVTVS VL: DIQMTQSPSSLSASVGDRVTITCRASQSISNNLNWYQQKPGKAPKLLIYYTSRFHSGVPSRFSGSGSGTDFTFTISSLQPEDIATYYCQQEHTLPYTFGQGTKLEIKRT", "values": [{"measurement": "survival of E17/18 trigeminal neurons promoted by NT3", "setting": "NT3", "result": "had no effect; also recorded: did not inhibit"}, {"measurement": "resting pain (cumulative pain score)", "setting": "[1]; 0.5 mg/kg i.v. two hours after surgery, assessed 24 hours after surgery", "result": "effectively alleviated post-surgical pain; also recorded: reduced resting pain"}, {"measurement": "resting pain (cumulative pain score)", "setting": "[1]; 0.02 to 1 mg/kg i.p. 15 hours pre-incision, 24 hours after surgery, vs saline", "result": "significantly reduced resting pain"}]}
